Substitutions are numbered along the chain they refer to.
Legend:
Assay in all cases: pull-down; 20 μg GST-Atg13 (351–458) immobilised on 30 μL Glutathione Sepharose 4B; Atg17-Atg31-Atg29 complex at 10 μM; 4°C, 1 hour; 20 mM Tris pH 8, 150 mM NaCl, 0.1 mM TCEP; 3 washes; SDS-PAGE
Details in all cases: both partners purified
[1] = target: T1, Atg17-Atg31-Atg29 complex with Atg17 mutant M4 (K164D/K173D/R299D) (Saccharomyces cerevisiae, UniProt Q06410 1-417; Q12421 1-196; Q12092 1-213, K164D | K173D | R299D)
T1 construct: Atg17, Saccharomyces cerevisiae; Atg31, Saccharomyces cerevisiae; Atg29, Saccharomyces cerevisiae; a TEV cleavage site follows the His6 tag; Mutations introduced into the Atg17-Atg31-Atg29 construct by quick-change mutagenesis; source: E. coli BL21 (DE3), co-expressed from pST39, purified (Ni-NTA, Superose 6); copies: 2 + +
T1 sequence (looked up) 1: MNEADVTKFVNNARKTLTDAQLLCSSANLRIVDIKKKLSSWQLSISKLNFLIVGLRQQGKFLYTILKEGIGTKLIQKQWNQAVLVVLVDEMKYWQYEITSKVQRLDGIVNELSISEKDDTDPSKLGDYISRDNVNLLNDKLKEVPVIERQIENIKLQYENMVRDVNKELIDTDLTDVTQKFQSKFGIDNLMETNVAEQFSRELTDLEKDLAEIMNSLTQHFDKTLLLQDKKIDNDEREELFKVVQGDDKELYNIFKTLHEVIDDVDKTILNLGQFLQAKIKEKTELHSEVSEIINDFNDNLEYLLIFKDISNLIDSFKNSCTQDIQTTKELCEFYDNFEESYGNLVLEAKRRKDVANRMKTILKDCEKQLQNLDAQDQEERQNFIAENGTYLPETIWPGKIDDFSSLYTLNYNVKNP
T1 sequence (looked up) 2: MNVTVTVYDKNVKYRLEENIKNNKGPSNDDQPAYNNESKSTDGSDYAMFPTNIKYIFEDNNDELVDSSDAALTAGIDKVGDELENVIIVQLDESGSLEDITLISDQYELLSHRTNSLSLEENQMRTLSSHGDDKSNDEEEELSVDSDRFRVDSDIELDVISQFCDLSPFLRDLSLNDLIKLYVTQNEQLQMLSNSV
T1 sequence (looked up) 3: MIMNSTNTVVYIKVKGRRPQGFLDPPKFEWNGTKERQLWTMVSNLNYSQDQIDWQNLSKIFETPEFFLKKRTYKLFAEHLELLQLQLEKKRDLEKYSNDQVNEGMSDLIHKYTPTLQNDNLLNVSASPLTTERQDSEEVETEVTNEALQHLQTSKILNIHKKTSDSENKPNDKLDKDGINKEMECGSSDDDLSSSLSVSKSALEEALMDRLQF

[2] = target: T2, Atg17-Atg31-Atg29 complex with Atg17 mutant M3 (K8D/R14D/K249D) (Saccharomyces cerevisiae, UniProt Q06410 1-417; Q12421 1-196; Q12092 1-213, K8D | R14D | K249D)
T2 construct: Atg17, Saccharomyces cerevisiae; Atg31, Saccharomyces cerevisiae; Atg29, Saccharomyces cerevisiae; a TEV cleavage site follows the His6 tag; Mutations introduced into the Atg17-Atg31-Atg29 construct by quick-change mutagenesis; source: E. coli BL21 (DE3), co-expressed from pST39, purified (Ni-NTA, Superose 6); copies: 2 + +
T2 sequence (looked up) 1: T1 sequence (looked up) 1 with K8D, R14D, D164K, D173K, K249D, D299R
T2 sequence (looked up) 2: T1 sequence (looked up) 2
T2 sequence (looked up) 3: T1 sequence (looked up) 3

[3] = target: T3, Atg17-Atg31-Atg29 complex, wild type (Saccharomyces cerevisiae, UniProt Q06410 1-417; Q12421 1-196; Q12092 1-213)
T3 construct: Atg17, Saccharomyces cerevisiae; Atg31, Saccharomyces cerevisiae; Atg29, Saccharomyces cerevisiae; a TEV cleavage site follows the His6 tag; Atg17 is described as a dimer; cleavage of the His6 tag by TEV is not mentioned; also called recombinant ternary complex; Atg17-Atg31-Atg29 subcomplex of Atg1; source: E. coli BL21 (DE3), co-expressed from pST39, purified (Ni-NTA, Superose 6); copies: 2 + +
T3 sequence (looked up) 1: T1 sequence (looked up) 1 with D164K, D173K, D299R
T3 sequence (looked up) 2: T1 sequence (looked up) 2
T3 sequence (looked up) 3: T1 sequence (looked up) 3

Measured: binding result

B1: GST-Atg13 (351–458) (domain or fragment, Saccharomyces cerevisiae, UniProt Q06628 351-458, looked up)
chain: TRANSFEPQSWQKKVYPISRPVQPFKVGSIGSQSASRNPSNSSFFNQPPVHRPSMSSNYGPQMNIEGTSVGSTSKYSSSFGNIRRHSSVKTTENAEKVSKAVKSPLQP
notes: a TEV cleavage site follows the GST tag; source: recombinant from pGST2 vector, purified (Glutathione Sepharose 4B, HiLoad Superdex 200 16/60); not shown: GST, N-terminal, kept
binds: all assays above

From article PMC5669500, “Scaffolding the cup-shaped double membrane in autophagy” (PLoS Computational Biology, 2017)
